Laboratory results reported in patent US20140234868A1, “USE FOR GLYCOLIPOPROTEIN GINTONIN, ISOLATED AND IDENTIFIED FROM GINSENG, AS A NATURAL MEDICAL-PLANT DERIVED LIGAND” (KONKUK UNIVERSITY INDUSTRIAL COOPERATION CORP., priority 2011, published 2014).

Assays:
[1] = target: T1, LPA6 receptor (Homo sapiens, UniProt P43657); experiment: Intracellular cAMP level in LPA6-expressing B103 cells; type: cell-based
T1 construct: host or cells: B103 rat neuroblastoma cells
T1 sequence (P43657 1-344): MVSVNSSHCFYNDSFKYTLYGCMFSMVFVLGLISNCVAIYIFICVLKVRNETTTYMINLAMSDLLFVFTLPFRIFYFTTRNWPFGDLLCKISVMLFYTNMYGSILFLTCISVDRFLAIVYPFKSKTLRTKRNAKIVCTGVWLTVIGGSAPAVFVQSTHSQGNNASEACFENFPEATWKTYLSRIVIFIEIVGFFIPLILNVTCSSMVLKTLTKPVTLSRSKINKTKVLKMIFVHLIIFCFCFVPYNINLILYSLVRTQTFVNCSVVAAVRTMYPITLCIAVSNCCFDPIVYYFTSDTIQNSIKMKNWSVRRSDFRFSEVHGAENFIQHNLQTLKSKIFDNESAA
Source text: (§1) After treatment with gintonin, B103 cells expressing LPA3 or LPA6 receptor were examined for change in intracellular cAMP level.

[2] = test system: LPA receptor-null B103 cells (empty vector); experiment: Intracellular free Ca2+ (Fura-2AM) in B103 cells transfected with empty vector; type: cell-based, rat; conditions: gintonin 1 μg/ml; empty vector B103 cells
Source text: LPA family receptors are endogenous to cells of most organs. B103 rat neuroblastoma cells, known as LPA receptor-null cells (Valentine et al., Biochim Biophys Acta 1780. 597-605) were transiently transfected with a plasmid (vector) carrying one of genes coding for LPA1(edg-2), LPA2(edg-4), LPA3(edg-7), LPA4, LPA5 and LPA6 receptors or a plasmid carrying none of them (empty vector). Two or three days after transfection, the cells are suspended, and made permeable. Then, the permeable cells are treated with Fura-2AM, a fluorescent dye binding to calcium, and then with gintonin, followed by spectrofluorephotometry to examine whether gintonin induces an increase in intracellular free Ca^2+ level. […]
Briefly, Fura 2-AM loaded cells were diluted with an experimental medium to a final density of 2˜4×10^6 cells/mL, and transferred to polystyrene cuvettes (Elkay Ultra-VU). […] Emission was detected at 510 nm Excitation and emission slit widths were 5 nm Background calibration was performed as described by Jørgensen et al. […]

[3] = target: T2, LPA3 receptor (Homo sapiens, UniProt Q9UBY5); experiment: Intracellular cAMP level in LPA3-expressing B103 cells; type: cell-based
T2 construct: host or cells: B103 rat neuroblastoma cells
T2 sequence (Q9UBY5 1-353): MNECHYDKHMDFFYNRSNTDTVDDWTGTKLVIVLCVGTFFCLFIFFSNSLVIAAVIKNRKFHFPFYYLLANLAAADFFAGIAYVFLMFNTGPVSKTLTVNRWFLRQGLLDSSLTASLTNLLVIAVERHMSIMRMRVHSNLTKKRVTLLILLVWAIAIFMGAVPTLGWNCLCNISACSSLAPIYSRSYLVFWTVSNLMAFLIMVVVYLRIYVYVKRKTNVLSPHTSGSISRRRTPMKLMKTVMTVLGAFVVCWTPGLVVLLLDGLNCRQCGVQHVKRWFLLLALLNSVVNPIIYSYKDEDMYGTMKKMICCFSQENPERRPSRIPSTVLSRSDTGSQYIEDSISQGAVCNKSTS
Source text: as §1

B1: gintonin: ginseng-derived glycolipoprotein; structural protein of ginseng major latex-like protein (MLP151) and ribonuclease-like storage proteins; crude gintonin used in tests (protein)
chain 1: MGLTGKLICQTGIKSDGDVFHELFGTRPHHVPNITPANIQGCDLHEGEFGKVGSVVIWNYSIDGNAMIAKEEIVAIDEEDKSVTFKVVEGHLFEEFKSIVFSVHVDTKGEDNLVTWSIDYEKLNESVKDPTSYLDFLLSVTRDIEAHHLPK
chain 2: RSDYPWAMFALRLQWPAGFCEVNNACDTKSLLNTFTIHGLYPYNAKGTPALYCDGTAFDVNSVSDFLAEMHLAWPSHETNTEDIQFWEHEWKKHGRCSEALLKQTDYFRTALAFRKAFDIVGLLNQEGIYPNNDLYRPKMIKEAIKKHLNAVPEIDFTKNENSEYVLTDINVCVNQQATRFVDCPTDDATDDYRLKFVRLPSKMKFADPRTNSII
change in intracellular cAMP level [1]: no influences on intracellular cAMP level
increase in intracellular calcium level [2]: 22.7 ± 4.1 nM
change in intracellular cAMP level [3]: no influences on intracellular cAMP level
